Reference: US20240336907A1, “NOVEL ENDO-ß-N-ACETYLGLUCOSAMINIDASE” (priority 2020, published 2024)
Changes are numbered by the printed parent chain. Names and notes keep the numbering of the source.

B1: Endo-Si T190Q (protein)
chain: MNKRLLVKRTFGCVCAAAILGVAPLSHPTIVEAREELKMPNGLEQSIADVEAKIDALTYLSKNSKDEFKHSMYEIPSNREHKPVSPKQALQNAKKADAQAERLAKMTIPKKEELKALEGPLYGGYFRTWQDKTSDPTETNKVNSFGELPKEVDLAFVFHDYTKDYSLFWEELATKQVPKLNKQGTRVIRQIPWRFLSGADHSDISADKEKFPNTEAGNKALAKAIVDEYVYKYNLDGLDIDIERDSVPKVNDKEDPEALARTVEVFKEIGKLIGANGADKSRLLIMDTTYTAEENPLIKETAQYLNLLLVQVYGFSGENGNYLHHKNILDETSSMEGRWQGYSKYIRPEQYMVGFSFYEEKDFNNRWKDINEEDPSDPHIGEKIQGTRAERYAKWQPKTGGLKGGLFSYAIDRDGVAQPKQKTEHPELDKIVKSEYKVSKALKKLMMTDDQYQPIDQSDFPDKALRESIIKQVGTRRGDLERFKGTLRLDNPEIKDLTGLNKLKRVAKLELINLPKITKIDKDDLPQNLKPLTDNQKSNLEIKGTYDDSKLYKDIPAFDLVISGLSGLESLDISGHQRDTLSGIDASTLPSLKAINISDNHFDLAQGTENRHILDTILATLAKNGASTASFDKQKPKGLYPESYSTAPLHLQVGQGKINVIDDLIFGTRTNQNTLINTENDFEAYKEQTIQGKPFIAPDYLYDNFKVSYKEYSASIVDSTLAETTDKTIDTAKAETYQVTVSNKDGKTVHSVKVIVGDEKPMMVNLAQDAKIIGTDNMTQSAKVFDGQKDQFLLSWNKDSSVIFELKTPGTAKHWRFFDDGKNDSVTLSVFKGDASNFETEKDKAENWVEITKDSRKNDDKVFSSPLEVDNAKYLKVTIKKEAKYIYFNELQILGYPGVVAKKTADDLRPTEADKSDDKSDKNDTEAK
modifications: Amino acid sequence of Endo-Si T190Q
B2: Endo-Si D241M/Q311L (protein)
chain: B1 chain with Q190T, D241M, Q311L
modifications: Amino acid sequence of Endo-Si D241M/Q311L
B3: Endo-Si D241M/E360Q (protein)
chain: B1 chain with Q190T, D241M, E360Q
modifications: Amino acid sequence of Endo-Si D241M/E360Q
B4: Endo-Si T190Q/D241Q (protein)
chain: B1 chain with D241Q
modifications: Amino acid sequence of Endo-Si T190Q/D241Q
B5: Endo-Si T190Q/D241M (protein)
chain: B1 chain with D241M
modifications: Amino acid sequence of Endo-Si T190Q/D241M
B6: Endo-Si D241Q (protein)
chain: B1 chain with Q190T, D241Q
modifications: Amino acid sequence of Endo-Si D241Q
B7: Endo-Si D241Q/Q311L (protein)
chain: B1 chain with Q190T, D241Q, Q311L
modifications: Amino acid sequence of Endo-Si D241Q/Q311L
B8: Endo-Si D241Q/E360Q (protein)
chain: B1 chain with Q190T, D241Q, E360Q
modifications: Amino acid sequence of Endo-Si D241Q/E360Q
B9: Endo-Si D241M (protein)
chain: B1 chain with Q190T, D241M
modifications: Amino acid sequence of Endo-Si D241M

Each molecule was assayed on (Fucα1,6)GlcNAc-mAb2 (assay: Transglycosylation activity with SGP as donor, in combination with Endo-M N175Q). Details: 2 h; donor SGP (50 eq.), Endo-M N175Q 2.5 mU, Endo-Si enzyme 10 μg, 23° C., pH 7.5.
Format: biochemical
Procedure: Transglycosylation activity was evaluated as follows. A 50 mM (sodium) phosphate buffer (pH 7.5) solution (17 μL) containing (Fucα1,6)GlcNAc-mAb2 (0.5 mg), SGP (0.485 mg (50 eq.)), Endo-M N175Q (manufactured by Tokyo Kasei Kogyo Co., Ltd.) (2.5 mU) and each of various Endo-Si mutant enzymes (10 μg), was prepared and incubated at 23° C. A sample was taken from each of the reaction solutions at 2, 4, 6, 24, and 48 hours after initiation of the reaction and analyzed for protein by a fully automated electrophoresis system as mentioned above. In the chromatogram obtained, an unreacted product and a transglycosylated molecule, mAb2-(SG)2 are confirmed as discrete peaks. The transglycosylation rates were obtained based on the peak area ratio between the unreacted product and the transglycosylated molecule in accordance with the following expression.
Similarly, transglycosylation rates of individual Endo-Si mutant enzymes at each time period of a reaction were calculated (Table 6).

| Molecule | Transglycosylation rate |
| --- | --- |
| B1 | 13.3% |
| B2 | 6.4% |
| B3 | 11.9% |
| B4 | 4.9% |
| B5 | 3.1% |
| B6 | 15.9% |
| B7 | 2.6% |
| B8 | 8.9% |
| B9 | 12.8% |

Same assay, conditions: 4 h; donor SGP (50 eq.), Endo-M N175Q 2.5 mU, Endo-Si enzyme 10 μg, 23° C., pH 7.5

| Molecule | Transglycosylation rate |
| --- | --- |
| B1 | 27.8% |
| B2 | 13.7% |
| B3 | 27.7% |
| B4 | 10.6% |
| B5 | 6.4% |
| B6 | 35.6% |
| B7 | 5.6% |
| B8 | 20.0% |
| B9 | 27.9% |

Same assay, conditions: 6 h; donor SGP (50 eq.), Endo-M N175Q 2.5 mU, Endo-Si enzyme 10 μg, 23° C., pH 7.5

| Molecule | Transglycosylation rate |
| --- | --- |
| B1 | 43.2% |
| B2 | 24.1% |
| B3 | 42.7% |
| B4 | 21.4% |
| B5 | 13.8% |
| B6 | 52.3% |
| B7 | 8.2% |
| B8 | 30.3% |
| B9 | 40.5% |

Same assay, conditions: 24 h; donor SGP (50 eq.), Endo-M N175Q 2.5 mU, Endo-Si enzyme 10 μg, 23° C., pH 7.5

| Molecule | Transglycosylation rate |
| --- | --- |
| B1 | 93.8% |
| B2 | 79.7% |
| B3 | 98.0% |
| B4 | 71.5% |
| B5 | 50.7% |
| B6 | 98.1% |
| B7 | 48.6% |
| B8 | 94.4% |
| B9 | 96.5% |

Same assay, conditions: 48 h; donor SGP (50 eq.), Endo-M N175Q 2.5 mU, Endo-Si enzyme 10 μg, 23° C., pH 7.5

| Molecule | Transglycosylation rate |
| --- | --- |
| B1 | 93.3% |
| B2 | 97.0% |
| B3 | 98.7% |
| B4 | 92.5% |
| B5 | 77.5% |
| B6 | 98.5% |
| B7 | 76.3% |
| B8 | 98.5% |
| B9 | 96.8% |

What follows are molecules tested on (Fucα1,6)GlcNAc-mAb2 (assay: Transglycosylation activity with sugar chain oxazoline [N3-PEG(3)]-MSG1(9)-Ox as donor). Details: 1 h; donor [N3-PEG(3)]-MSG1(9)-Ox (8 eq.), enzyme 1.25 μg, 28° C., pH 7.5.
Format: biochemical
Procedure: Transglycosylation activity was evaluated as follows. […] A sample was taken from each of the reaction solutions at 1, 2, 4, 6, and 24 hours after initiation of the reaction and analyzed for protein by a fully automated electrophoresis system as mentioned above. In the chromatogram obtained, an unreacted product and transglycosylated molecule, mAb2-(MSG1-N3)2 were confirmed as discrete peaks. The transglycosylation rate was calculated based on the peak-area ratio between the unreacted product and the transglycosylated molecule in accordance with the following expression.
Transglycosylation rate (%)=[[peak area of mAb2-(MSG1-N3)2-derived H chain]/{[peak area of (Fucα1,6)GlcNAc-mAb2-derived H chain]+[peak area of mAb2-(MSG1-N3)2-derived H chain]}]×100
Similarly, the transglycosylation rates of individual Endo-Si mutant enzymes at each time period for a reaction were calculated (Table 5).

| Molecule | Transglycosylation rate |
| --- | --- |
| B1 | 97.2% |
| B2 | 31.8% |
| B3 | 99.1% |
| B4 | 26.6% |
| B5 | 43.5% |
| B6 | 75.2% |
| B7 | 5.7% |
| B8 | 73.5% |
| B9 | 98.8% |

Same assay, conditions: 2 h; donor [N3-PEG(3)]-MSG1(9)-Ox (8 eq.), enzyme 1.25 μg, 28° C., pH 7.5

| Molecule | Transglycosylation rate |
| --- | --- |
| B1 | 91.8% |
| B2 | 59.1% |
| B3 | 99.0% |
| B4 | 48.4% |
| B5 | 64.1% |
| B6 | 97.0% |
| B7 | 11.6% |
| B8 | 96.8% |
| B9 | 98.9% |

Same assay, conditions: 4 h; donor [N3-PEG(3)]-MSG1(9)-Ox (8 eq.), enzyme 1.25 μg, 28° C., pH 7.5

| Molecule | Transglycosylation rate |
| --- | --- |
| B1 | 81.8% |
| B2 | 95.9% |
| B3 | 96.2% |
| B4 | 83.3% |
| B5 | 92.7% |
| B6 | 99.1% |
| B7 | 27.4% |
| B8 | 99.0% |
| B9 | 97.4% |

Same assay, conditions: 6 h; donor [N3-PEG(3)]-MSG1(9)-Ox (8 eq.), enzyme 1.25 μg, 28° C., pH 7.5

| Molecule | Transglycosylation rate |
| --- | --- |
| B1 | 76.7% |
| B2 | 99.5% |
| B3 | 95.5% |
| B4 | 96.1% |
| B5 | 98.7% |
| B6 | 99.6% |
| B7 | 44.4% |
| B8 | 99.6% |
| B9 | 97.5% |

Same assay, conditions: 24 h; donor [N3-PEG(3)]-MSG1(9)-Ox (8 eq.), enzyme 1.25 μg, 28° C., pH 7.5

| Molecule | Transglycosylation rate |
| --- | --- |
| B1 | 32.6% |
| B2 | 99.9% |
| B3 | 75.9% |
| B4 | 99.6% |
| B5 | 99.6% |
| B6 | 98.8% |
| B7 | 99.3% |
| B8 | 98.9% |
| B9 | 75.0% |
